The record followed here is the supplement of paper PMC10724198.

± gives the standard deviation of the averaged measurements.

This data set deals with Saccharomyces cerevisiae. The experiment in a line: protein stability index of tFT-peptide fusion (C-terminal peptide) (PSI (0-1 scale)); higher = more stable (slower turnover). The note with it: temperature: 30 C. Here is the method: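 MPS profiling in S. cerevisiae of the yeast C-terminome library: the last 12 aa of each annotated ORF are fused to the C-terminus of a sfGFP-mCherry timer, after a GGGS linker. Cells are FACS-sorted into 8 mCherry/sfGFP bins and deep-sequenced. PSI runs from 0 (unstable) to 1 (stable); wild type and das1Δ backgrounds, two technical replicates each.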

[1] abbreviates: genetic background: das1 deletion.

For the sequence EESEKQLYTVLK [CUS1 C-terminal 12 aa], the protein stability index runs as follows: under setting [1], 0.688 ± 0.0087; (genetic background: wild type) 0.676 ± 0.01.
Consider EETLEFDPTLLV [YBL062W C-terminal 12 aa], for which the protein stability index runs as follows: under setting [1], 0.707 ± 0.0077; (genetic background: wild type) 0.692 ± 0.023.
Take EFEENPNPTVEN [HSP42 C-terminal 12 aa]: the protein stability index by setting is: under setting [1], 0.731 ± 0.033; (genetic background: wild type) 0.702 ± 0.054.
As to EFHQDFFSKYRN [ALT2 C-terminal 12 aa], the protein stability index runs as follows: under setting [1], 0.707 ± 0.011; (genetic background: wild type) 0.729 ± 0.027.
With EGENVRSKVERF [YKL070W C-terminal 12 aa], the protein stability index is, setting by setting: under setting [1], 0.7262 ± 0.0046; (genetic background: wild type) 0.704 ± 0.053.
On the same counts, the results for EGKEEIIYDSEG [RAD55 C-terminal 12 aa] are 0.6913 ± 0.006 and 0.677 ± 0.047.
On the same counts, the results for EGSGEFVGEMEI [MRS6 C-terminal 12 aa] are 0.708 ± 0.0019 and 0.714 ± 0.067.
For EHTMLAKAQGHD [XPT1 C-terminal 12 aa], in that order: 0.71 ± 0.022 and 0.6558 ± 0.0011.
As for EIDGQFCIFQVV [YJL107C C-terminal 12 aa], the protein stability index turned out to be 0.711 ± 0.013 under setting [1] and 0.647 ± 0.031 (genetic background: wild type).
Turning to EIKPYLRFTKSK [PRX1 C-terminal 12 aa], the protein stability index is, setting by setting: under setting [1], 0.692 ± 0.011; (genetic background: wild type) 0.718 ± 0.085.
As for EIRKRRASSLKA [RPS6A C-terminal 12 aa], the protein stability index runs as follows: under setting [1], 0.649 ± 0.021; (genetic background: wild type) 0.646 ± 0.0092.
With EKIKRDLALKKG [PET100 C-terminal 12 aa], the protein stability index reads like this: under setting [1], 0.697 ± 0.045; (genetic background: wild type) 0.661 ± 0.059.
On the same counts, the results for EKLAALVENAEV [PUF3 C-terminal 12 aa] are 0.68 ± 0.0089 and 0.679 ± 0.04.
In turn, “EKLQLWHSMSND [YOR008C-A C-terminal 12 aa]” came in with a protein stability index under setting [1] of 0.698 ± 0.0035 and a protein stability index (genetic background: wild type) of 0.72 ± 0.033.
For ELKAHNINVVDK [PNC1 C-terminal 12 aa], the protein stability index turned out to be 0.662 ± 0.037 under setting [1] and 0.675 ± 0.044 (genetic background: wild type).
ELNEEKRRSALP [SAK1 C-terminal 12 aa]: the protein stability index under setting [1] amounted to 0.687 ± 0.023 and the protein stability index (genetic background: wild type) is 0.686 ± 0.016.
For ELQEKVEQLSKW [POL3 C-terminal 12 aa], in that order: 0.7208 ± 0.00089 and 0.688 ± 0.026.
Take ELYNIIVKSVPK [YRB2 C-terminal 12 aa]: the protein stability index by setting is: under setting [1], 0.673 ± 0.0039; (genetic background: wild type) 0.695 ± 0.045.
On the same counts, the results for EMTHSLFKKYGI [CRC1 C-terminal 12 aa] are 0.705 ± 0.017 and 0.722 ± 0.047.
In the case of ENFNEVFEAIRS [RSC3 C-terminal 12 aa], the protein stability index was 0.6822 ± 0.0037 under setting [1] and 0.709 ± 0.016 (genetic background: wild type).
For ENFSSALQSPIF [YDL152W C-terminal 12 aa], the protein stability index was 0.733 ± 0.0084 under setting [1] and 0.754 ± 0.055 (genetic background: wild type).
As to ENVLFYIGRVNK [COB C-terminal 12 aa], the protein stability index came to 0.726 ± 0.026 under setting [1] and 0.669 ± 0.017 (genetic background: wild type).
Consider EPYNIKYSNSKK [MSD1 C-terminal 12 aa], for which the protein stability index under setting [1] was 0.7 ± 0.03 and the protein stability index (genetic background: wild type) is 0.66695 ± 2.1e-06.
Turning to EQLADYLIGVQY [PFY1 C-terminal 12 aa], the protein stability index turned out to be 0.686 ± 0.014 under setting [1] and 0.6754 ± 0.0032 (genetic background: wild type).
In turn, EQQNFEKCNEYI [NPL6 C-terminal 12 aa] returned a protein stability index under setting [1] of 0.691 ± 0.01 and a protein stability index (genetic background: wild type) of 0.655 ± 0.007.
On to EQVRFKNINYKS [AZF1 C-terminal 12 aa], for which the protein stability index turned out to be 0.654 ± 0.0011 under setting [1] and 0.673 ± 0.014 (genetic background: wild type).
On the same counts, the results for ERAYMYYLRNGK [NAM9 C-terminal 12 aa] are 0.656 ± 0.023 and 0.625 ± 0.021.
In the case of ERCSLQNPFYSI [YNR066C C-terminal 12 aa], the protein stability index runs as follows: under setting [1], 0.7315 ± 0.0067; (genetic background: wild type) 0.696 ± 0.0016.
